Measurements: patent US20140120128A1

Key:
Assay in all cases: cell-based or functional assay
[1] = molecular target: human TLR2 expressed on HEK293 cells (human) (UniProt O60603)
[2] = molecular target: human TLR3 expressed on HEK293 cells (human) (UniProt O15455)
[3] = molecular target: human TLR4 (MD2-CD14) expressed on HEK293 cells (human) (UniProt O00206)
[4] = molecular target: human TLR5 expressed on HEK293 cells (human) (UniProt O60602)
[5] = molecular target: T1, human TLR7 expressed on HEK293 cells (human) (UniProt Q9NYK1)
T1 sequence: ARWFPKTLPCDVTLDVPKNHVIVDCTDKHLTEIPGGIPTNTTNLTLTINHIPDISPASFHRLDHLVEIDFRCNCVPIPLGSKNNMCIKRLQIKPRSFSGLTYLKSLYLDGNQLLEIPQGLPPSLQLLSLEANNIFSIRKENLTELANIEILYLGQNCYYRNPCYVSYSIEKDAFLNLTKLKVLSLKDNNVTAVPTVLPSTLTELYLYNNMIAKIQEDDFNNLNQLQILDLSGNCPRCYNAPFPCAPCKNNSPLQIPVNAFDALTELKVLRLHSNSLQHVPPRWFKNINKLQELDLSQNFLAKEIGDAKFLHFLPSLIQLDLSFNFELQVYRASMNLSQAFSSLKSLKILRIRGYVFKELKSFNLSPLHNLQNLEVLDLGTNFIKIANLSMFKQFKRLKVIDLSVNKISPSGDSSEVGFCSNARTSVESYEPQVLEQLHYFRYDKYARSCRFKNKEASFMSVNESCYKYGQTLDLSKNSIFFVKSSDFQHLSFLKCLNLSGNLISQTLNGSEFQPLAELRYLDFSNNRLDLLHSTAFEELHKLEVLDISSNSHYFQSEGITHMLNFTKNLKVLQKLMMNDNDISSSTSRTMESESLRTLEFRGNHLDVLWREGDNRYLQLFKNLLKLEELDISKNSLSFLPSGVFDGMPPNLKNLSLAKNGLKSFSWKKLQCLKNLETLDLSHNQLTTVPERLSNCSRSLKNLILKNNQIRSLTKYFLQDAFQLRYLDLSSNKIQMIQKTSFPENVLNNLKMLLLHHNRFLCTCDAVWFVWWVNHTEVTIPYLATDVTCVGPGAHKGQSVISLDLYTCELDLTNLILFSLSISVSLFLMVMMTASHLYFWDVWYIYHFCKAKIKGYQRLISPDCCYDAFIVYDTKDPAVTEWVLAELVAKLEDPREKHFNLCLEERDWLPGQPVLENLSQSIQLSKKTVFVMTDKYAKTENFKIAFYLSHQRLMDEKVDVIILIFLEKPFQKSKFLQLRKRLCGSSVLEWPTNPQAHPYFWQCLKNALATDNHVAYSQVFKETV

[6] = molecular target: T2, human TLR8 expressed on HEK293 cells (human) (UniProt Q9NR97)
T2 sequence: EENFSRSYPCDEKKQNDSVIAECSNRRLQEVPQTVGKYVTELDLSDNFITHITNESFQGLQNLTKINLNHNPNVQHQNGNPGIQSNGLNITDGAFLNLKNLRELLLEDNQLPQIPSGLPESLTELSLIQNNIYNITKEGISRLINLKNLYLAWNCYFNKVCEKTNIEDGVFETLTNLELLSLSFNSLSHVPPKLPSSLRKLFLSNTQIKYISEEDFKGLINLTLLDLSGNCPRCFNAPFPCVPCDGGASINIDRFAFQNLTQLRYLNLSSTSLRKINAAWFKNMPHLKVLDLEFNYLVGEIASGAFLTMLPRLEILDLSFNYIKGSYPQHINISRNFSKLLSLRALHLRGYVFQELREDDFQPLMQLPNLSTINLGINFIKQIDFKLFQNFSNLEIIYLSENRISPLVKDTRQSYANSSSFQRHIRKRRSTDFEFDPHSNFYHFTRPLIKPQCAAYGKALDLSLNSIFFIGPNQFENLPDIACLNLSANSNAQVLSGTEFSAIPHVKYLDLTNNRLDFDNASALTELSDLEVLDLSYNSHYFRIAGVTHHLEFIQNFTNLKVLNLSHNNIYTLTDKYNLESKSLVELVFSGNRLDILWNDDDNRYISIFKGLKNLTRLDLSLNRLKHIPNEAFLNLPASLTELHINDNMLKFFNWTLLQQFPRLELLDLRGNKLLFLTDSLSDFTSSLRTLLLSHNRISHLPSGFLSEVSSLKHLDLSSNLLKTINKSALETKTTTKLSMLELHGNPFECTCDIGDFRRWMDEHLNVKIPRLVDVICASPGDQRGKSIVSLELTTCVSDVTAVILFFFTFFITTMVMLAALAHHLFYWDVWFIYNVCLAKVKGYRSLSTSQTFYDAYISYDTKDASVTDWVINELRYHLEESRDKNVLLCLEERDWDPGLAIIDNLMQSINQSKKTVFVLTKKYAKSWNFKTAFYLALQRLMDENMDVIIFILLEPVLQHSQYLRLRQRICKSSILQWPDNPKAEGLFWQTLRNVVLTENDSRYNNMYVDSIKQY

[7] = molecular target: T3, human TLR9 expressed on HEK293 cells (human) (UniProt Q9NR96)
T3 sequence: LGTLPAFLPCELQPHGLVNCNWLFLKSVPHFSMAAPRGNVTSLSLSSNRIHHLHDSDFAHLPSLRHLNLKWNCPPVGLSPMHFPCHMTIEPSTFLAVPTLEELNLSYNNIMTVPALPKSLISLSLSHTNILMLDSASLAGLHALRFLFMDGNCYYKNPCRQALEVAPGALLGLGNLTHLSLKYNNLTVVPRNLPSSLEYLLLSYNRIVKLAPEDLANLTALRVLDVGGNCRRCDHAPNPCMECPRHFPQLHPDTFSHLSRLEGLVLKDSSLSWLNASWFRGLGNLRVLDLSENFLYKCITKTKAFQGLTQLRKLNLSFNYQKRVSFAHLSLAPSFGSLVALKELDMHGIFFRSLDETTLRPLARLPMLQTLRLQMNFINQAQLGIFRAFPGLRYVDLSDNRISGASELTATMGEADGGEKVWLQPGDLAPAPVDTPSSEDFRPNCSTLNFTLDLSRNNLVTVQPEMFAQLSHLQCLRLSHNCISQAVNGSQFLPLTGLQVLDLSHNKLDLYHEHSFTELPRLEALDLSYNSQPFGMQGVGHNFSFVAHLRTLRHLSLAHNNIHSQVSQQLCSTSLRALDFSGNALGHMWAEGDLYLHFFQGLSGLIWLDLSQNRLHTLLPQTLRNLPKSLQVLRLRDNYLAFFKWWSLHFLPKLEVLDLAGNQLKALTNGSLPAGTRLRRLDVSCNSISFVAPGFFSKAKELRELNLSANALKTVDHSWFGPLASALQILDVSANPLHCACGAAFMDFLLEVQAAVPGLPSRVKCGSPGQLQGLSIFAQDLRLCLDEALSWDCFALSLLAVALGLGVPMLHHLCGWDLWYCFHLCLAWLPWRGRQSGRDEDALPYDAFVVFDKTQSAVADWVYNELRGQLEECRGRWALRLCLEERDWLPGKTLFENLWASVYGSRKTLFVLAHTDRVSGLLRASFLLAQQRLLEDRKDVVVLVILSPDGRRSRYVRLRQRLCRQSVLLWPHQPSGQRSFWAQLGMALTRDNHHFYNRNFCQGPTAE

Chain of human TLR5 expressed on HEK293 cells (human) (O60602 21-858): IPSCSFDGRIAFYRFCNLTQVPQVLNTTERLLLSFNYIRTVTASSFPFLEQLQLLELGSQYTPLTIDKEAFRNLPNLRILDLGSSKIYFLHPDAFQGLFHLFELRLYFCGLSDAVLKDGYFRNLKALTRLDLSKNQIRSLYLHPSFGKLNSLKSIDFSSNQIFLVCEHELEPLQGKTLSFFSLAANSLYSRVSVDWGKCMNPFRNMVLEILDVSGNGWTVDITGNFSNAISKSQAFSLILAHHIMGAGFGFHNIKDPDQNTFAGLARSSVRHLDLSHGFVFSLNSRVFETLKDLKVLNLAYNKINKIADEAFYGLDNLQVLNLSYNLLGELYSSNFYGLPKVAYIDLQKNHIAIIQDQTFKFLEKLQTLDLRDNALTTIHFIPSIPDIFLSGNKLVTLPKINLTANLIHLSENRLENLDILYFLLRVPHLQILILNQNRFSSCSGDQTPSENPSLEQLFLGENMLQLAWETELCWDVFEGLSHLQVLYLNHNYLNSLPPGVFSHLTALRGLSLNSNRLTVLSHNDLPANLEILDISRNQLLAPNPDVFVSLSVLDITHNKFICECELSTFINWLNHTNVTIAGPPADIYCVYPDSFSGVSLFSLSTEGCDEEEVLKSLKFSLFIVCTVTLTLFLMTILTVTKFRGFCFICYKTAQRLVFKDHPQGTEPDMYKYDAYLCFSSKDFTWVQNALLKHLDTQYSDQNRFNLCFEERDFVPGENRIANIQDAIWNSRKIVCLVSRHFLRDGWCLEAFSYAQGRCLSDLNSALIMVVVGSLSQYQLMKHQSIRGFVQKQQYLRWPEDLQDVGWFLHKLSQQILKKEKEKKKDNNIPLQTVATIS
Chain of human TLR4 (MD2-CD14) expressed on HEK293 cells (human) (O00206 24-839 limits assumed, chain 1 of 3): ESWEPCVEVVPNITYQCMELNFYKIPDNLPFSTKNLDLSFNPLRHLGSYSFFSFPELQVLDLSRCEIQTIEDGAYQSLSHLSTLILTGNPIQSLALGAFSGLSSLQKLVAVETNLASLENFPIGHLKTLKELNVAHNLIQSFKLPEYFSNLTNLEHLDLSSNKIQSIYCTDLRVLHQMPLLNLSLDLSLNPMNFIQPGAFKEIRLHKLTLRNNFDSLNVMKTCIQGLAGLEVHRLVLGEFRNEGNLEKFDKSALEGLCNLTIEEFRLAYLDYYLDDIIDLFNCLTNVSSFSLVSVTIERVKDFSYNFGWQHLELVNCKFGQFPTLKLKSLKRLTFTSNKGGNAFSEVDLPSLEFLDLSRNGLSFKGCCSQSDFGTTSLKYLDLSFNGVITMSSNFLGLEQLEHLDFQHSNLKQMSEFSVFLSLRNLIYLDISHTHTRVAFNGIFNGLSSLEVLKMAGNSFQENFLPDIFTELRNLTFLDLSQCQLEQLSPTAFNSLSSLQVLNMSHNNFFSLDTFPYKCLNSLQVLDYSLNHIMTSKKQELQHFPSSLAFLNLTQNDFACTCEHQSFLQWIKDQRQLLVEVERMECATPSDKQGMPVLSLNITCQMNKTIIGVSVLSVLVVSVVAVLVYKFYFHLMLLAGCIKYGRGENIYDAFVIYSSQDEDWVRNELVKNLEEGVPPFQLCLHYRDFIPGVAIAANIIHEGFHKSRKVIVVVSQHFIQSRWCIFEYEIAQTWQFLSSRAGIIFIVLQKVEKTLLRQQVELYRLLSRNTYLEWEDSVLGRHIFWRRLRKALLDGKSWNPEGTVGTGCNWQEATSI
Chain of human TLR4 (MD2-CD14) expressed on HEK293 cells (human) (Q9Y6Y9 19-160 limits assumed, chain 2 of 3, further chain): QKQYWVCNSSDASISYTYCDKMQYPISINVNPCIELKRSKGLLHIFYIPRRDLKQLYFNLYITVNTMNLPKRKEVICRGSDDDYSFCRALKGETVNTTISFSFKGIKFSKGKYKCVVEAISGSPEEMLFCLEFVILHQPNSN
Chain of human TLR4 (MD2-CD14) expressed on HEK293 cells (human) (P08571 20-345 limits assumed, chain 3 of 3, further chain): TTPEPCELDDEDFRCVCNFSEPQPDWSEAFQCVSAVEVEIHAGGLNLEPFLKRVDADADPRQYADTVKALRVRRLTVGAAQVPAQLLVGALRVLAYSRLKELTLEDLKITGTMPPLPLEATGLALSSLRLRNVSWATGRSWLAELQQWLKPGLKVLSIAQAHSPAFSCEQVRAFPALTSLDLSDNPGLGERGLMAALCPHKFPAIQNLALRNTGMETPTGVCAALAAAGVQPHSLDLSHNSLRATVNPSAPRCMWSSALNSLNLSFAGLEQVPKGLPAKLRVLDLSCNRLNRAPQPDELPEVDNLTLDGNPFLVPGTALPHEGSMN
Chain of human TLR2 expressed on HEK293 cells (human) (O60603 21-784): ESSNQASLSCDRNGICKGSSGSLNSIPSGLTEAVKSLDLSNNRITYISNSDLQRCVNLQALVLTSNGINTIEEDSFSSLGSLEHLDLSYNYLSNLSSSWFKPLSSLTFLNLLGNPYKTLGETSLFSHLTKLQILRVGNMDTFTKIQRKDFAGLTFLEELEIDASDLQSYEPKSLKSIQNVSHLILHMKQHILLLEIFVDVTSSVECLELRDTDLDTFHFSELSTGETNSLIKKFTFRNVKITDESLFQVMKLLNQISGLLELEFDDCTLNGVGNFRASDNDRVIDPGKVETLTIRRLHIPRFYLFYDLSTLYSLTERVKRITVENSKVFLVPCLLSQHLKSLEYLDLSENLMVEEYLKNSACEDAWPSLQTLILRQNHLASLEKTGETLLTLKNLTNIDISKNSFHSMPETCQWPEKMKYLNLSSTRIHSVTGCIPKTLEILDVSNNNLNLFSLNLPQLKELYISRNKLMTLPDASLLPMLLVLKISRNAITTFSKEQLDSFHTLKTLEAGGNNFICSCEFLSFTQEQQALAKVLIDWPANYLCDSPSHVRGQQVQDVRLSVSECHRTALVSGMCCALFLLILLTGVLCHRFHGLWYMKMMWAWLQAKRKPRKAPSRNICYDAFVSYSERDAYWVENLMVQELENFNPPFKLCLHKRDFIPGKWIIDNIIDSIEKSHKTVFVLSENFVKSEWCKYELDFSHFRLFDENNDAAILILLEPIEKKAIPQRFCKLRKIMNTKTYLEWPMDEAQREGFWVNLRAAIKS

B1: truncated YscF (protein)
chain: LKKPADDANKAVNDSIAALKDKPDNPALLADLQHSINKWSVIYNINSTIVRSMKDLMQGILQKFP
SEAP reporter expression in HEK293 cells, screening 1 [1]: 2.02 | SEAP reporter expression in HEK293 cells, screening 2 [1]: 1.98 | SEAP reporter expression in HEK293 cells, screening 1 [2]: 0.097 | SEAP reporter expression in HEK293 cells, screening 2 [2]: 0.101 | SEAP reporter expression in HEK293 cells, screening 1 [3]: 2 | SEAP reporter expression in HEK293 cells, screening 2 [3]: 1.9 | SEAP reporter expression in HEK293 cells, screening 1 [4]: 0.15 | SEAP reporter expression in HEK293 cells, screening 2 [4]: 0.154 | SEAP reporter expression in HEK293 cells, screening 1 [5]: 0.091 | SEAP reporter expression in HEK293 cells, screening 2 [5]: 0.097 | SEAP reporter expression in HEK293 cells, screening 1 [6]: 0.099 | SEAP reporter expression in HEK293 cells, screening 2 [6]: 0.105 | SEAP reporter expression in HEK293 cells, screening 1 [7]: 0.079 | SEAP reporter expression in HEK293 cells, screening 2 [7]: 0.079
